Results from patent US20190111106A1.

Molecular target: AC domain (catalytic domain) of Bordetella pertussis adenylate cyclase toxin, recombinant (Bordetella pertussis) (UniProt J7QLC0)
Assay: SPR competition: AC domain (10 µM) pre-mixed with CaM and injected over an FHA-coated chip

Calmodulin (from UniProt P0DP23 2-149) showed a percent reduction of AC domain binding to FHA of 75%.
